The subject of test [1] is P. aeruginosa 6077 (exoU+). The experiment in a line: Rabbit red blood cell lysis inhibition assay with strain 6077. Type of test: cell-based, Pseudomonas aeruginosa. To be noted: strain 6077; FIG. 12D-E. The procedure:
Percent inhibition of cytotoxicity analysis was analysed for the parental V2L2 mAb, mAb166 (positive control) and R347 (negative control), where the antibodies were administered to cultured broncho-epithelial cell line A549 combined with log-phase P. aeruginosa strain 6077 (exoU+) at a MOI of approximately 10. A549 lysis was assayed by measuring released lactate dehydrogenase (LDH) activity and lysis in the presence of mAbs was compared to wells without mAb to determine percent inhibition. The V2L2 mAb, mAb166 (positive control) and R347 (negative control) were evaluated for their ability to prevent lysis of RBCs, where the antibodies were mixed with log-phase P. aeruginosa 6077 (exoU^+) and washed rabbit red blood cells (RBCs) and incubated for 2 hours at 37°. Intact RBCs were pelleted and the extent of lysis determined by measuring the OD405 of the cell-free supernatant. Lysis in the presence of anti-PcrV mAbs was compared to wells without mAb to determine percent inhibition.

The target in another test is rPcrV protein. The test is described as follows: Binding kinetics on Bio-Rad ProteOn XPR36. Details: species or system Pseudomonas aeruginosa. To be noted: antibody captured, rPcrV injected; FIG. 12G-H. The procedure:
Binding kinetics of V2L2-GL and V2L2-MD were measured using a Bio-Rad ProteOn™ XPR36 instrument. Antibodies were captured on a GLC bisensor chip using anti-human IgG reagents. rPcrV protein was injected at multiple concentrations and the dissociation phase followed for 600 seconds. Data was captured and analyzed using ProteOn Manager software. […] The clone V2L2-MD had increased Kd by 2-3 folds over V2L2-GL.

Test [2] deals with P. aeruginosa serogroup 05 strain (PAO1.lux). The test is described as follows: Opsonophagocytic killing (OPK) assay with luminescent PAO1.lux, HL-60 cells and baby rabbit serum. Type of test: cell-based, Pseudomonas aeruginosa. To be noted: FIG. 2A. The procedure:
(§1) This example describes the evaluation of prioritized human IgG1 antibodies to promote OPK of P. aeruginosa. […] OPK assays were performed as described in (DiGiandomenico, A., et al., Infect Immun 72, 7012-7021 (2004)), with modifications. Briefly, assays were performed in 96-well plates using 0.025 ml of each OPK component; P. aeruginosa strains; diluted baby rabbit serum; differentiated HL-60 cells; and monoclonal antibody. In some OPK assays, luminescent P. aeruginosa strains, which were constructed as described (Choi, K. H., et al., Nat Methods 2, 443-448 (2005))., were used. Luminescent OPK assays were performed as described above but with determination of relative luciferase units (RLUs) using a Perkin Elmer ENVISION Multilabel plate reader (Perkin Elmer).

Test [3] relates to P. aeruginosa serogroup 011 strain (9882-80.lux). The experiment in a line: OPK assay with luminescent 9882-80.lux. It counts as cell-based, Pseudomonas aeruginosa. To be noted: FIG. 2B. The procedure: as §1
The ability of the WapR-004 and Cam-003 antibodies to mediate OPK activity against another clinically relevant O-antigen serotype strain, 9882-80.lux, was evaluated.

The test system of test [4] is P. aeruginosa PAO1.lux attachment to A549 cells. The test is described as follows: Cell attachment assay, PAO1.lux on A549 cells. To be noted: MOI 10, FIG. 4. Type of test: cell-based, Pseudomonas aeruginosa. The method, then: Anti-Psl antibodies were added to a confluent monolayer of A549 cells (an adenocarcinoma human alveolar basal epithelial cell line) grown in opaque 96-well plates (Nunc Nunclon Delta). Log-phase luminescent P. aeruginosa PAO1 strain (PAO1.lux) was added at an MOI of 10. After incubation of PAO1.lux with A549 cells at 37° C. for 1 hour, the A549 cells were washed, followed by addition of LB+0.5% glucose. Bacteria were quantified following a brief incubation at 37° C. as performed in the OPK assay described in Example 2. Measurements from wells without A549 cells were used to correct for non-specific binding.

In another test the test system is P. aeruginosa 6294 (O6). The test is described as follows: Acute pneumonia model in mice, strain 6294. To be noted: for Overall Impression, lung histology: BALB/c mice. It counts as in vivo, Pseudomonas aeruginosa. The method, then:
(§2) Antibodies or PBS were administered 24 hours before infection in each model. P. aeruginosa acute pneumonia, keratitis, and thermal injury infection models were performed as described (DiGiandomenico, A., et al., Proc Natl Acad Sci USA 104, 4624-4629 (2007)), with modifications. In the acute pneumonia model, BALB/c mice (The Jackson Laboratory) were infected with P. aeruginosa strains suspended in a 0.05 ml inoculum. In the thermal injury model, CF-1 mice (Charles River) received a 10% total body surface area burn with a metal brand heated to 92° C. for 10 seconds. Animals were infected subcutaneously with P. aeruginosa strain 6077 at the indicated dose. For organ burden experiments, acute pneumonia was induced in mice followed by harvesting of lungs, spleens, and kidneys 24 hours post-infection for determination of CFU.

In test [5] the test system is P. aeruginosa 6077 (O11, cytotoxic). The experiment in a line: Acute pneumonia model in mice, strain 6077. To be noted: WapR-004 5 and 1 mg/kg; 6077 (O11) 8×10^5 or 6×10^5 CFU; FIG. 6E-F. Type of test: in vivo, Pseudomonas aeruginosa. The method, then:
as §2

The subject of test [6] is P. aeruginosa 6206 (O11-ExoU+). The test is described as follows: Acute pneumonia model in mice, strain 6206. It counts as in vivo, Pseudomonas aeruginosa. The procedure:
as §2

In test [7] the test system is P. aeruginosa 6077 (O11-cytotoxic). The experiment in a line: Corneal infection (keratitis) model in mice, strain 6077. To be noted: antibody 24 h prior to 6077 (2×10^6 CFU); FIG. 8A-D, F-G. It counts as in vivo, Pseudomonas aeruginosa. The procedure:
as §2
Cam-003 and WapR-004 efficacy was next evaluated in a P. aeruginosa corneal infection model which emphasizes the pathogens ability to attach and colonize damaged tissue. […] FIG. 8 (H): The activity of anti-Psl and anti-PcrV monoclonal antibodies V2L2 was tested in a P. aeruginosa mouse ocular keratitis model. C3H/HeN mice were injected intraperitoneally (IP) with PBS or a control IgG1 antibody (R347) at 45 mg/kg or WapR-004 (α-Psl) at 5 mg/kg or V2L2 (α-PcrV) at 5 mg/kg, 16 hours prior to infection with 6077 (O11-cytotoxic−1×10^6 CFU) Immediately before infection, mice were anesthetized followed by initiation of three 1 mm scratches on the cornea and superficial stroma of one eye of each mouse using a 27-gauge needle under a dissection microscope, followed by topical application of P. aeruginosa 6077 strain in a 5 μl inoculum. Eyes were photographed at 48 hours post infection followed by corneal grading by visualization of eyes under a dissection microscope. Grading of corneal infection was performed as previously described by Preston et al. (Preston, M J., 1995, Infect. Immun. 63:3497). Briefly, infected eyes were graded 48 h after infection with strain 6077 by an investigator who was unaware of the animal treatments. The following grading scheme was used: grade 0, eye macroscopically identical to an uninfected eye; grade 1, faint opacity partially covering the pupil; grade 2, dense opacity covering the pupil; grade 3, dense opacity covering the entire pupil; grade 4, perforation of the cornea (shrinkage of the eyeball).

[8] abbreviates: 1.33×10^7 CFU 6294, 0.2 mg/kg (combination 0.1 mg/kg ea), Table 6A.
The mark [9] stands for this setting: 1.7×10^7 CFU 6294, 0.2 mg/kg (combination 0.1 mg/kg ea), Table 6B.
The mark [10] stands for this setting: 5.25×10^5 cfu 6206, single antibody: R347 2.1 mg/kg, V2L2 0.1 mg/kg, WapR-004 0.5 mg/kg, Table 5.
[11] abbreviates: 9.25×10^5 CFU 6206, 0.2 mg/kg (combination 0.1 mg/kg ea), Table 7.

B1: V2L2-MD: optimized V2L2-GL mAb; germlined lead optimized anti-PcrV antibody used in Bs4-GLO (antibody, V domains shown)
VH: EMQLLESGGGLVQPGGSLRLSCAASGFTFSSYAMNWVRQAPGEGLEWVSAITISGITAYYTDSVKGRFTISRDNSKNTLYLQMNSLRAGDTAVYYCAKEEFLPGTHYYYGMDVWGQGTTVTVSS
VL: AIQMTQSPSSLSASVGDRVTITCRASQGIRNDLGWYQQKPGKAPKLVIYSASTLQSGVPSRFSGSGSGTDFTLSISSLQPDDFATYYCLQDYNYPWTFGQGTKVEIK
modifications: V2L2-MD VH; V2L2-MD and V2L2-GL VL
With B1, the “prevention of RBC lysis” value in test [1] is recorded as “demonstrated prevention of RBC lysis”. In addition, at rPcrV protein, the “Kd increased over V2L2-GL” value is 2-3 folds.

B2: WapR-004: anti-Psl human IgG1 monoclonal antibody; VH SEQ ID NO: 11, VL SEQ ID NO: 12 (antibody, V domains shown)
VH: EVQLLESGPGLVKPSETLSLTCNVAGGSISPYYWTWIRQPPGKGLELIGYIHSSGYTDYNPSLKSRVTISGDTSKKQFSLHVSSVTAADTAVYFCARGDWDLLHALDIWGQGTLVTVSS
VL: EIVLTQSPSSLSTSVGDRVTITCRASQSIRSHLNWYQQKPGKAPKLLIYGASNLQSGVPSRFSGSGSGTDFTLTISSLQPEDFATYYCQQSYSFPLTFGGGTKLEIK
modifications: WapR-004 VH; WapR-004 & WarR-004RAD VL
Consider B2, for which the “OPK activity, in words” value in test [2] is “superior OPK activity”. Moreover, the “OPK activity against strain 9882-80 (O11)” value in test [3] is recorded as “extends to strain 9882-80 (O11)”. Moreover, the “reduction of P. aeruginosa cell attachment to A549 cells compared to the negative control (up to)” value in test [4] is on record as roughly 80%. Further, the “Hemorrhage, extent in words” value in the test on P. aeruginosa 6294 (O6) (setting [8]) is “Extensive”. Besides, the “Inflammatory Infiltrate” value in the test with P. aeruginosa 6294 (O6) (setting [8]) was “PMN 3+”; in the test on P. aeruginosa 6294 (O6) (setting [9]), “PMN 2+”; in test [6] (setting [10]), “PMN 2-3+”; in test [6] (setting [11]), “PMN 1-2+”. Moreover, the “Involved Lung Surface Area” value with P. aeruginosa 6294 (O6) (setting [8]) amounted to 57%; in the test with P. aeruginosa 6294 (O6) (1.7×10^7 CFU 6294, 0.2 mg/kg, Table 6B), 40%; in test [6] (setting [10]) it was 50%; in test [6] (setting [11]), 36%. Also, the Bacteria entry is “Neg-2+” in the test on P. aeruginosa 6294 (O6) (setting [9]) and “Neg-1+” in test [6] (setting [11]). Further, the “organ burden after induction of acute pneumonia” value in the test on P. aeruginosa 6294 (O6) (6294 (~1×10^7 CFU), 15, 5, 1 mg/kg, FIG. 7E) was “reduced organ burden”; in test [6] (6206 (~1×10^6 CFU), 15, 5, 1 mg/kg, FIG. 7F) it was “reduced organ burden”. The “Overall Impression, lung histology” value with P. aeruginosa 6294 (O6) (setting [8]) is given as “Broncho interstitial pneumonia”; in the test on P. aeruginosa 6294 (O6) (setting [9]), “Broncho interstitial pneumonia”; in test [6] (setting [10]) it was “Broncho interstitial pneumonia”; in test [6] (BALB/c mice, 9.25×10^5 CFU 6206, 0.2 mg/kg (combination 0.1 mg/kg ea), Table 7) it was “Broncho interstitial pneumonia”. Besides, the survival result in [5] is “significant concentration-dependent survival”. Besides, the “organ burden / tissue clearance (lung, spleen, kidney CFU)” value in [6] (5.25×10^5 cfu 6206, V2L2 0.1 mg/kg, W4-RAD 0.5 mg/kg, combination, 24 h post infection, FIG. 15) was “effective in lowering organ burden”. Also, the “bacterial counts in total eye homogenates compared to negative control” value in test [7] was “reduced bacterial counts in total eye homogenates”. The “corneal pathology compared to negative control-treated animals” value in [7] is given as “significantly less pathology”.

The values above are taken from patent publication US20150284450A1, “COMBINATION THERAPIES USING ANTI-PSEUDOMONAS PSL AND PCRV BINDING MOLECULES” (priority 2012, published 2015).
